For seven molecules, percent blocking, binding result and IC50 results are on record in patent publication US20230408517A1 (BIO TECHNE, published 2023).

Read-outs that look alike come from different tables or passages of the source.

For test [1], the target named is T1, recombinant monomeric SARS-CoV-2 S1 protein, his-tagged (SARS-CoV-2, UniProt P0DTC2 16-681).
T1 construct: domain: S1
Description: flow cytometry, blocking of binding to hACE-2 cells.

In test [2] the target is T2, recombinant monomeric SARS-CoV-1 S1 protein (SARS-CoV-1, UniProt P59594 14-667). The test is described as above.
Test [3] has as its target T3, SARS-CoV spike RBD (R306-F527), C-terminal 6-His (SARS-CoV, UniProt P59594 306-527). Described as above.
For test [4], the target named is T4, recombinant his-tagged homotrimeric SARS-CoV-2 spike protein (SARS-CoV-2, UniProt P0DTC2 16-1211). The description is as above.
For test [5], the target named is T1, recombinant monomeric SARS-CoV-2 S1 …. The test is described as above. This is another data set of the same source.
The target in test [6] is T2, recombinant monomeric SARS-CoV-1 S1 …. Described as above. This is another data set of the same source.
The target of test [7] is T3, SARS-CoV spike RBD (R306-F527), …. The test is described as above. The source holds these as a separate data set.
The target of test [8] is T4, recombinant his-tagged homotrimeric …. Described as above. The source holds these as a separate data set.
In test [9] the target is T3, SARS-CoV spike RBD (R306-F527), …. Briefly: dipstick, adsorbed RBD spots, Ab 10 µg/mL, GAM-AuNP.
The target of test [10] is T2, recombinant monomeric SARS-CoV-1 S1 …. Description: antigen-down ELISA, coated SARS-CoV-1 S1 titrated, Ab 1 µg/mL.
Test [11] addresses T3, SARS-CoV spike RBD (R306-F527), …. Briefly: lateral flow NC50, RBD-AuNP vs immobilised ACE2.
In test [12] the target is T5, BSA (bovine, UniProt P02769).
T5 construct: also called bovine serum albumin
Description: dipstick, adsorbed protein spots, Ab 10 µg/mL (reference).

In test [13] the target is T2, recombinant monomeric SARS-CoV-1 S1 …. Briefly: antigen-down ELISA, coated SARS-CoV-1 S1 titrated, Ab 1 µg/mL. The source holds these as a separate data set.
Test [14] addresses T3, SARS-CoV spike RBD (R306-F527), …. Briefly: antigen-down ELISA, coated SARS-CoV-1 S1 RBD titrated, Ab 1 µg/mL.
Test [15] has the same target. Described as above. The source holds these as a separate data set.
Test [16] addresses T2, recombinant monomeric SARS-CoV-1 S1 …. Description: antigen-down ELISA, coated SARS-CoV-1 S1 titrated, Ab 1 µg/mL. The source holds these as a separate data set.
Test [17] deals with T5, BSA. Briefly: dipstick, adsorbed protein spots, Ab 10 µg/mL, GAM-AuNP.
Test [18] addresses T3, SARS-CoV spike RBD (R306-F527), …. Description: dipstick, adsorbed RBD spots, Ab 10 µg/mL, GAM-AuNP. This is another data set of the same source.
Test [19] concerns the target T2, recombinant monomeric SARS-CoV-1 S1 …. Description: antigen-down ELISA, coated SARS-CoV-1 S1 titrated, Ab 1 µg/mL. This is another data set of the same source.

T5 sequence (P02769 25-607 limits assumed): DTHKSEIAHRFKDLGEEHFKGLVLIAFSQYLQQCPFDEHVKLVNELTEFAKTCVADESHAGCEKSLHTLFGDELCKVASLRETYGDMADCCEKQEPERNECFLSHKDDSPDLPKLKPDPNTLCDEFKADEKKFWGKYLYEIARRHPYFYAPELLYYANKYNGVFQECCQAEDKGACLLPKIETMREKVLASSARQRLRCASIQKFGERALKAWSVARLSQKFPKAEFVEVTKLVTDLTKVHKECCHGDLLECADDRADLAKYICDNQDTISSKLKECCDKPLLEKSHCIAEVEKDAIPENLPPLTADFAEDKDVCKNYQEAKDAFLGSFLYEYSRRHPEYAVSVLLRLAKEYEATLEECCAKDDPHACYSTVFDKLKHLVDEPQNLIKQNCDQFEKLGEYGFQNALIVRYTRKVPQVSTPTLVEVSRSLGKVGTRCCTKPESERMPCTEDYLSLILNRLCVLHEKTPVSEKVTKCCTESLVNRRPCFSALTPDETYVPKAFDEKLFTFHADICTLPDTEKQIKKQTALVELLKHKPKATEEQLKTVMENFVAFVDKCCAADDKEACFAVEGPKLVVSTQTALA

B1: 1035716 (antibody, V domains shown)
VH: EVLLQQSGPELVKPGASVKIPCKASGYTFTDYNMDWVKQSHGKSLEWIGDINPNNGGTIYNQKFKGKATLTVDKSSSTAYMELRSLTSEDTAVYYCAREGYGNYFDYWGQGTTLTVSS
VL: DILLTQSPAILSVSPGERVSFSCRASQSIGTSIHWYQQRTNGSPRLLIKYASESISGIPSRFSGSGSGTDYTLSINSVESEDIADYYCQQSYSWPTTFGAGTKLELK
On to B1, for which the percent blocking in test [1] came out at 93.8%; in test [2], 89.5%; in test [3], 68.7%; in test [4], 96.5%; in [5] it was 93.8%; in test [6], 89.5%. In addition, the results for the percent blocking in test [7] and in test [8] were 68.7% and 96.5%, respectively.

B2: 1035224 (antibody, V domains shown)
VH: EVQLQQSGAEFVRPGALVKLSCKASGFNIKDDYMHWVKQRPEQGLEWIGWIDPENGNSIYDPKFQGKASITADTSSNTAYLQLSSLTSEDTAVYYCARGEYFGSGSFAYWGQGTLVTVSA
VL: QIVLTQSPAIMSASPGEKVTISCSASSSVSYMYWYQQKPGSSPKPWIYRTSNLASGVPARFSGSGSGTSYSLTISSMEAEDAATYYCQQYHSYPYMYTFGGGTKLEIK
Turning to B2, the percent blocking in test [1] was 86.6%; in [2], 0%; in [3], 0%; in test [4], 96.6%; in test [5] it was 86.6%; in test [6], 0%. Moreover, the percent blocking in test [7] amounted to 0%; in test [8], 96.6%. Besides, the results for the binding result in [9] and in test [10] were “no binding (tested: 10 µg/mL)” and “no binding (tested: 400 ng coated (axis))”, respectively.

B3: 1035414 (antibody, V domains shown)
VH: QVQLKQSGAELVRPGASVKLSCKTSGYIFTSYWIHWVKQRSGQGLEWIARIYPGTGNTYYNEKFKGKATLTADKSSTTAYMQLSSLKSEDSAVYFCARGEDNLYYYAMDYWGQGTSVTVSS
VL: NIVLTQSPASLAVSLGQRATISCRASESVDSYGTSFMHWYQQKPGQPPKLLIYLASNLESGVPASFSGSGSRTDFTLTIDPVEADDAATYYCQQNNEDPWTFGGGTKLEIK
For the molecule B3, the percent blocking is 25.9% in [1]; 12% in test [2]; 0.4% in test [3]; 51.4% in [4]; 25.9% in [5]; 12% in test [6]. The figures for the percent blocking in [7] and in test [8] were 0.4% and 51.4%, respectively.

B4: 1035419 (antibody, V domains shown)
VH: QVQLKQSGAELVRPGASVKLSCKTSGYIFTSYWIHWIKQRSGQGLEWIARIYPGTGSTYNNEKFKGKATLTADKSSSTAYMQLSSLKSEDSAVYFCARGEDNLYFYAMDYWGQGTSVTVSS
VL: NIVLTQSPASLAVSLGQRATISCRASESVDSYGASFMHWCQQKPGQPPKLLIYLASNLESGVPARFSGSGSRTDFTLTIDPVEADDAATYYCQQNYEDPWTFGGGTKLEIK
In the case of B4, the percent blocking in test [1] came to 70.1%; in test [2], 88.5%; in test [3], 44.1%; in test [4] it was 89%; in test [5] it was 70.1%; in [6], 88.5%. For the same molecule, the percent blocking is 44.1% in test [7] and 89% in test [8]. Further, in [11], the midpoint of inhibition, the IC50, lay at 2.86 µg/mL. Moreover, the binding result with BSA [12] is “no binding (tested: 10 µg/mL)”.

B5: 1035423 (antibody, V domains shown)
VH: EVKLEESGGGLVQPGGSMKLSCTASGFTFSDAWMDWVRQSPEKGLEWVAEIRNKANNHATYYAESVKGRFTISRDDSKSSVYLQMNSLRAEDTGIYYCILFITYAMDYWGQGTSVTVSS
VL: DIVLTQSQKFMSTSVGDRVSITCKASQNVRTAVAWYQQKPGQSPKALIYLASNRHTGVPDRFTGSGSGTDFTLTISNVQSEDLADYFCLQHWNYPLTFGSGTKLELK
As for B5, the percent blocking in test [1] stood at 19.7%; in test [2], 0%; in [3] it was 0%; in [4], 91.6%; in test [6] it was 0%; in [7], 0%. Moreover, the percent blocking in test [8] was found to be 91.6%. Also, the binding result in [13] and in test [14] was “no binding (tested: 400 ng coated (axis))” throughout.

B6: 1035433 (antibody, V domains shown)
VH: QVQLQQSGPQLVRPGASVKISCKASGYSFTIYWMHWVQQRPGQGLEWIGMIDPSDSETRLNQKFKDKATLTVDKSSSTAYMQLSSPTSEDSAVYYCARRGDYNFDYWGQGTTLTVSS
VL: DIVMTQAAPSVPATPGESVSISCRSSKSLLHSNGNTYLYWFLQRPGQSPQLLIFRMSNLASGVPDRFSGSGSGTAFTLRISRVEAEDVGVYYCMQHLEYPYTFGGGTKLEIK
Regarding B6, the percent blocking is 9.3% in test [1]; 0% in [2]; 0% in test [3]; 82.5% in [4]; 9.3% in test [5]; 0% in test [6]. The percent blocking stood at 0% in test [7] and 82.5% in [8]. In addition, the binding result in [15] and in test [16] was “no binding (tested: 400 ng coated (axis))” in each case.

B7: 1035240 (antibody, V domains shown)
VH: QVQLQQSGAELARPGASVKMSCKASGYTFTTYTMHWVKQRPGQGLEWIGYINPSSGYTNYNQKFKDKATLTADTSSSTAYMQLSSLTSEDSAVYYCARRNPLYAMDYWGQGTSVTVSS
VL: DIKMTQSPSSMYASLGERVTITCKASQDINSYLNWFQQKPGKSPKTLIYRANRLVDGVPSRFSGSGSGQDYSLTISSLEYEDMGIYYCLQYDEFPYTFGGGTKLEIK
With B7, the percent blocking in test [1] is 56.5%; in [2], 0%; in test [3], 0%; in [4], 96.1%; in test [5], 56.5%; in test [6] it was 0%. Besides, the percent blocking in test [7] was found to be 0%; in [8], 96.1%. The binding result with BSA [17] was “no binding (tested: 10 µg/mL)”; in test [18], “no binding (tested: 10 µg/mL)”; in test [19] it was “no binding (tested: 400 ng coated (axis))”.
